US7375083B2, “Pharmaceutical compositions for prevention of overdose or abuse” (Shire LLC, priority 2003, dated 2008)
Where a SMILES comes first, the peptide text is derived from it. The star is where a group is joined. X1 = COc1ccc2c3c1O[C@H]1C(O*)=CC[C@H]4[C@@H](C2)N(C)CC[C@]314

Legend:
[1] = Oral bioavailability of hydrocodone conjugates in rats, LC/MS/MS; settings: for Percent Decrease 1 mg/kg vs. 5 mg/kg AUC / Percent Decrease 1 mg/kg vs. 5 mg/kg Cmax: oral bioavailability; for hydrocodone plus hydromorphone concentration / AUC (ng/ml h) 0-8 h / Cmax / Percent HC (AUC) / Percent HC (Cmax) / Peak levels and bioavailability: oral; for AUC (ng/ml h) 0-8 h / Cmax: hydrocodone plus hydromorphone; for Percent HC (AUC) / Percent HC (Cmax): relative to hydrocodone bitartrate; for Peak levels and bioavailability: rat, 5 mg/kg
[2] = Intranasal bioavailability of hydrocodone conjugates in rats, LC/MS/MS; settings: intranasal, 1 mg/kg dose; for AUC (ng/ml h) 0-1 h / Cmax: hydrocodone plus hydromorphone; for Percent HC (AUC) / Percent HC (Cmax): relative to hydrocodone bitartrate
[3] = Oral pharmacokinetics in rats, plasma d-amphetamine by ELISA; settings: Oral, relative to amphetamine (first value where two are given)
[4] = Intravenous bioavailability of hydrocodone conjugates in rats, LC/MS/MS; settings: intravenous, 1 mg/kg dose; for AUC (ng/ml h) 0-1 h / Cmax: hydrocodone plus hydromorphone; for Percent HC (AUC) / Percent HC (Cmax): relative to hydrocodone bitartrate

CC[C@H](C)[C@H](NC(=O)[C@H](CC(=O)O)NC(=O)[C@@H](N)CC(=O)O)C(=O)OC1=CC[C@H]2[C@H]3Cc4ccc(OC)c5c4[C@@]2(CCN3C)[C@H]1O5 [DDI-HC, Asp-Asp-Ile-Hydrocodone]
Percent Decrease 1 mg/kg vs. 5 mg/kg AUC [1]: 9%
Percent Decrease 1 mg/kg vs. 5 mg/kg Cmax [1]: 9%
hydrocodone plus hydromorphone concentration ([1]; 1 mg/kg dose, 0.5 Hours): 14.9 ng/mL
hydrocodone plus hydromorphone concentration ([1]; 1 mg/kg dose, 1.5 Hours): 5 ng/mL
hydrocodone plus hydromorphone concentration ([1]; 1 mg/kg dose, 3 Hours): 0 ng/mL
hydrocodone plus hydromorphone concentration ([1]; 1 mg/kg dose, 5 Hours): 0 ng/mL
hydrocodone plus hydromorphone concentration ([1]; 1 mg/kg dose, 8 Hours): 0 ng/mL
AUC (ng/ml h) 0-8 h ([1]; 1 mg/kg dose): 17.4 ng·h/mL
Cmax ([1]; 1 mg/kg dose): 14.9 ng/mL
Percent HC (AUC) ([1]; 1 mg/kg dose): 124%
Percent HC (Cmax) ([1]; 1 mg/kg dose): 173%
hydrocodone plus hydromorphone concentration ([1]; 5 mg/kg dose, 0.5 Hours): 115 ng/mL
hydrocodone plus hydromorphone concentration ([1]; 5 mg/kg dose, 1.5 Hours): 19 ng/mL
hydrocodone plus hydromorphone concentration ([1]; 5 mg/kg dose, 3 Hours): 11 ng/mL
hydrocodone plus hydromorphone concentration ([1]; 5 mg/kg dose, 5 Hours): 4 ng/mL
hydrocodone plus hydromorphone concentration ([1]; 5 mg/kg dose, 8 Hours): 3.1 ng/mL
AUC (ng/ml h) 0-8 h ([1]; 5 mg/kg dose): 145 ng·h/mL
Cmax ([1]; 5 mg/kg dose): 115 ng/mL
Percent HC (AUC) ([1]; 5 mg/kg dose): 113%
Percent HC (Cmax) ([1]; 5 mg/kg dose): 158%
Peak levels and bioavailability [1]: substantially decreased
hydrocodone plus hydromorphone concentration ([2]; 5 Minutes): 281 ng/mL
hydrocodone plus hydromorphone concentration ([2]; 15 Minutes): 121 ng/mL
hydrocodone plus hydromorphone concentration ([2]; 30 Minutes): 64 ng/mL
hydrocodone plus hydromorphone concentration ([2]; 60 Minutes): 16 ng/mL
AUC (ng/ml h) 0-1 h [2]: 88 ng·h/mL
Cmax [2]: 281 ng/mL
Percent HC (AUC) [2]: 31%
Percent HC (Cmax) [2]: 51%

CC(Cc1ccccc1)NC(=O)C(N)CCC(=O)O (centres unmarked) [E-Amp]
Percent AUC [3]: 73%
Percent Cmax [3]: 95%

CC(Cc1ccccc1)NC(=O)[C@H](CCC(=O)O)NC(=O)[C@@H](N)CCC(=O)O (some centres unmarked) [EE-Amp]
Percent AUC [3]: 26%
Percent Cmax [3]: 74%

CC(Cc1ccccc1)NC(=O)[C@H](Cc1ccccc1)NC(=O)[C@H](CCC(=O)O)NC(=O)[C@@H](N)CCC(=O)O (some centres unmarked) [EEF-Amp]
Percent AUC [3]: 42%
Percent Cmax [3]: 73%

COc1ccc2c3c1O[C@H]1C(OC(=O)[C@H](Cc4ccccc4)NC(=O)[C@H](Cc4ccccc4)NC(=O)[C@H](Cc4ccccc4)NC(=O)[C@H](CCC(=O)O)NC(=O)[C@@H](N)CCC(=O)O)=CC[C@H]4[C@@H](C2)N(C)CC[C@]314 [EEFFF[SEQ ID NO: 3]-HC, Glu-Glu-Phe-Phe-Phe[SEQ ID NO: 3]-Hydrocodone] (H-EEFFF-X1)
hydrocodone plus hydromorphone concentration ([4]; 5 Minutes): 135 ng/mL
hydrocodone plus hydromorphone concentration ([4]; 15 Minutes): 77 ng/mL
hydrocodone plus hydromorphone concentration ([4]; 30 Minutes): 140 ng/mL
hydrocodone plus hydromorphone concentration ([4]; 60 Minutes): 85 ng/mL
AUC (ng/ml h) 0-1 h [4]: 107 ng·h/mL
Cmax [4]: 135 ng/mL
Percent HC (AUC) [4]: 62%
Percent HC (Cmax) [4]: 75%
hydrocodone plus hydromorphone concentration ([1]; 1 mg/kg dose, 0.5 Hours): 11.3 ng/mL
hydrocodone plus hydromorphone concentration ([1]; 1 mg/kg dose, 1.5 Hours): 4.1 ng/mL
hydrocodone plus hydromorphone concentration ([1]; 1 mg/kg dose, 3 Hours): 1.2 ng/mL
hydrocodone plus hydromorphone concentration ([1]; 1 mg/kg dose, 5 Hours): 1.2 ng/mL
hydrocodone plus hydromorphone concentration ([1]; 1 mg/kg dose, 8 Hours): 1.2 ng/mL
AUC (ng/ml h) 0-8 h ([1]; 1 mg/kg dose): 20.7 ng·h/mL
Cmax ([1]; 1 mg/kg dose): 11.3 ng/mL
Percent HC (AUC) ([1]; 1 mg/kg dose): 108%
Percent HC (Cmax) ([1]; 1 mg/kg dose): 119%
hydrocodone plus hydromorphone concentration ([2]; 5 Minutes): 34 ng/mL
hydrocodone plus hydromorphone concentration ([2]; 15 Minutes): 21 ng/mL
hydrocodone plus hydromorphone concentration ([2]; 30 Minutes): 24 ng/mL
hydrocodone plus hydromorphone concentration ([2]; 60 Minutes): 15 ng/mL
AUC (ng/ml h) 0-1 h [2]: 21 ng·h/mL
Cmax [2]: 34 ng/mL
Percent HC (AUC) [2]: 14%
Percent HC (Cmax) [2]: 13%

CC[C@H](C)[C@H](NC(=O)[C@H](Cc1ccccc1)NC(=O)[C@H](Cc1ccccc1)NC(=O)[C@H](CCC(=O)O)NC(=O)[C@@H](N)CCC(=O)O)C(=O)OC1=CC[C@H]2[C@H]3Cc4ccc(OC)c5c4[C@@]2(CCN3C)[C@H]1O5 [EEFFI[SEQ ID NO: 5]-HC, Glu-Glu-Phe-Phe-Ile[SEQ ID NO: 5]-Hydrocodone] (H-EEFFI-X1)
hydrocodone plus hydromorphone concentration ([4]; 5 Minutes): 89 ng/mL
hydrocodone plus hydromorphone concentration ([4]; 15 Minutes): 76 ng/mL
hydrocodone plus hydromorphone concentration ([4]; 30 Minutes): 78 ng/mL
hydrocodone plus hydromorphone concentration ([4]; 60 Minutes): 66 ng/mL
AUC (ng/ml h) 0-1 h [4]: 66 ng·h/mL
Cmax [4]: 89 ng/mL
Percent HC (AUC) [4]: 38%
Percent HC (Cmax) [4]: 44%
Percent Decrease 1 mg/kg vs. 5 mg/kg AUC [1]: 70%
Percent Decrease 1 mg/kg vs. 5 mg/kg Cmax [1]: 65%
hydrocodone plus hydromorphone concentration ([1]; 1 mg/kg dose, 0.5 Hours): 12.9 ng/mL
hydrocodone plus hydromorphone concentration ([1]; 1 mg/kg dose, 1.5 Hours): 5.2 ng/mL
hydrocodone plus hydromorphone concentration ([1]; 1 mg/kg dose, 3 Hours): 4.2 ng/mL
hydrocodone plus hydromorphone concentration ([1]; 1 mg/kg dose, 5 Hours): 0 ng/mL
hydrocodone plus hydromorphone concentration ([1]; 1 mg/kg dose, 8 Hours): 1.6 ng/mL
AUC (ng/ml h) 0-8 h ([1]; 1 mg/kg dose): 25.8 ng·h/mL
Cmax ([1]; 1 mg/kg dose): 12.9 ng/mL
Percent HC (AUC) ([1]; 1 mg/kg dose): 135%
Percent HC (Cmax) ([1]; 1 mg/kg dose): 136%
hydrocodone plus hydromorphone concentration ([1]; 5 mg/kg dose, 0.5 Hours): 44 ng/mL
hydrocodone plus hydromorphone concentration ([1]; 5 mg/kg dose, 1.5 Hours): 6.5 ng/mL
hydrocodone plus hydromorphone concentration ([1]; 5 mg/kg dose, 3 Hours): 5.7 ng/mL
hydrocodone plus hydromorphone concentration ([1]; 5 mg/kg dose, 5 Hours): 4.2 ng/mL
hydrocodone plus hydromorphone concentration ([1]; 5 mg/kg dose, 8 Hours): 4.5 ng/mL
AUC (ng/ml h) 0-8 h ([1]; 5 mg/kg dose): 68 ng·h/mL
Cmax ([1]; 5 mg/kg dose): 44 ng/mL
Percent HC (AUC) ([1]; 5 mg/kg dose): 41%
Percent HC (Cmax) ([1]; 5 mg/kg dose): 47%
Peak levels and bioavailability [1]: substantially decreased

CC(Cc1ccccc1)NC(=O)[C@H](Cc1ccccc1)NC(=O)[C@@H](N)Cc1ccccc1 (some centres unmarked) [FF-Amp]
Percent AUC [3]: 27%
Percent Cmax [3]: 64%

CC(Cc1ccccc1)NC(=O)CNC(=O)CN (centres unmarked) [GG-Amp]
Percent AUC [3]: 79%
Percent Cmax [3]: 88%

CC(Cc1ccccc1)NC(=O)C(N)Cc1cnc[nH]1 (centres unmarked) [H-Amp]
Percent AUC [3]: 16%
Percent Cmax [3]: 21%
